For the assay, the target named is T1, Mutant OA chain (long chain, CH1-hinge-CH2-CH3 with P395K, P396K, V397K) (human, UniProt P01857-1 1-330 = IgG part, P395K; P396K; V397K).
T1 construct: domain: CH1-hinge-CH2-CH3; Expressed alone it is expected as a long chain homodimer; also called OA mutation chain; Mutation OA chain
As to the kind of experiment: three independent co-transfections in HEK293, protein A bead pull-down, SDS-PAGE (FIG. 6).

Procedure: DNA encoding long chain and short chain were mixed with 1:1 ratio and transfected into HEK293 cells. Three days later, cell culture supernatants were harvested and subjected to magnetic protein A beads pull-down. Proteins bound to magnetic beads were analyzed by SDS-PAGE electrophoresis.
Various positive charged and negative charged polypeptide chain combinations were co-expressed in HEK 293 cells. […] Three days after transfection, cell culture supernatants were harvested by centrifugation and subjected to protein A magnetic beads (Pierce) pull down. Protein products bound on magnetic beads were characterized based on their mobility on SDS-PAGE gel electrophoresis. Collected protein A magnetic beads with bound proteins were re-suspended in 30 μL PBS buffer, mixed with 30 μL of SDS-PAGE loading buffer and boiled for 5 min. Half volume of boiled samples was loaded onto 10% SDS-PAGE to separate long chain homodimer, long chain and short chain heterodimer and short chain homodimer.

B1: Mutant OB chain (short chain, hinge-CH2-CH3 with T394D, P395D, P396D) (other, human, UniProt P01857-1 104-330, looked up, name in EU numbering)
chain: DKTHTCPPCPAPELLGGPSVFLFPPKPKDTLMISRTPEVTCVVVDVSHEDPEVKFNWYVDGVEVHNAKTKPREEQYNSTYRVVSVLTVLHQDWLNGKEYKCKVSNKALPAPIEKTISKAKGQPREPQVYTLPPSRDELTKNQVSLTCLVKGFYPSDIAVEWESNGQPENNYKTDDDVLDSDGSFFLYSKLTVDKSRWQQGNVFSCSVMHEALHNHYTQKSLSLSPGK
notes: domain: hinge-CH2-CH3; also called OB mutation chain; Mutation OB chain
Turning to B1, the binding result is reported as “binds”.

(Values after patent publication US20190119406A1 (BISON THERAPEUTICS, published 2019).)
